How the values were obtained:
[1] = target: the molecule itself; assay: cryo-EM structure; wild-type P. thracensis MukBEF dimers 150 nM with nicked plasmid pFB526 and 5 mM ATP, 10 mM MgCl2, pH 7.0, optionally with Na3VO4 or BeSO4/NaF; datasets pooled
[2] = target: the molecule itself; assay: cryo-EM structure; E. coli MukEF 1 μM mixed with 4 μM gp5.9 in 20 mM Tris, 200 mM NaCl, 0.5 mM TCEP, 0.05 % β-octyl glucoside, pH 7.4, on ice

B1: P. thracensis MukE as subunit of wild-type MukBEF (natural protein, Photorhabdus thracensis)
chain: MSSTHIEQFMPVKLAQALANSLFPELDSQLRAGRHIGIDDLDNHAFLMDFQEQLEEFYARYNVELIRAPEGFFYLRPRSTTLIPRSVLSELDMMVGKILCYLYLSPERLANQGIFTSQELYEELISLADEGKLMKFVNQRSSGSDLDKQKLQEKVRTTLNRLRRLGMVYFLPNNNNKFTITEAVFRFGADVRSGDDPREIQLRMIRDGEAMPVEGSLSLDDSENDETPDNSAEGAGDEQP
notes: Photorhabdus thracensis MukE; the MukE chain of m14; source: E. coli BL21-Gold(DE3), co-expressed as MukBEF from pFB403, purified
In the case of B1, the “stoichiometry N” value [1] is reported as 2.

B2: T7 gp5.9, purified from insect cells (natural protein, bacteriophage T7)
chain: MSRDLVTIPRDVWNDIQGYIDSLERENDSLKNQLMEADEYVAELEEKLNGTS
notes: bacteriophage T7 gp5.9; histidine tag removed with 3C protease; Used as 'gp5.9 dimers' in SEC; source: Hi5 insect cells, purified (Talon, 3C cleavage, HisTrap, MonoQ)
In the case of B2, the “stoichiometry N” value [2] is reported as 2.

Reference: publication doi:10.1101/2024.10.02.616235, “Mechanism of DNA entrapment by the MukBEF SMC complex and its inhibition by a viral DNA mimic” (bioRxiv, 2024)
